Experimental data: article PMC7925690, “A molecular switch in sulfur metabolism to reduce arsenic and enrich selenium in rice grain” (Nature Communications, 2021)

Key:
AtOAS-TL A = target: T1, AtOAS-TL A (Arabidopsis thaliana, UniProt P47998); assay: microscale thermophoresis, RED-tris-NTA labelled His-tagged protein; format: binding
T1 construct: gene OASA1; full-length ORF, C-terminal His tag (pET-29a NdeI/XhoI); E. coli BL21(DE3); Ni-NTA

OsASTOL1 = target: T2, OsASTOL1 (Oryza sativa, UniProt Q9XEA6); assay: as above; format: binding
T2 construct: gene RCS1; mature form, N-terminal 87 residues (first 261 bp) deleted; C-terminal His tag (pET-29a NdeI/XhoI); E. coli BL21(DE3); Ni-NTA; dimer by SEC

[1] = target: mature OsASTOL1 protein (untagged) (rice (Oryza sativa cv. Kasalath)) (UniProt Q9XEA6); assay: SEC; HiLoad 16/60 Superdex 200 prep grade, 20 mM Tris-HCl, 150 mM NaCl, pH 7.5, 1 ml/min; 1 mg protein in 1 ml injected; molecular weight from a calibration curve
[2] = target: mature OsASTOL1^S189N protein (untagged) (rice (Oryza sativa cv. Kasalath)) (UniProt Q9XEA6); assay: as above
AtOAS-TL A-His = target: T3, AtOAS-TL A-His (Arabidopsis thaliana, UniProt P47998 1-322, labeled with RED-tris-NTA 2nd Generation Dye); assay: MST; His-tagged OAS-TL labeled with RED-tris-NTA 2nd Generation Dye (100 µM as printed) with a serial dilution of the AtSAT5C10 peptide; PBS pH 7.6, 0.05% Tween 20; Monolith NT.115; details: both partners purified
T3 construct: Arabidopsis thaliana cytosolic O-acetylserine(thiol)lyase A; ORF without the stop codon; Cloned into the NdeI/XhoI sites of pET-29a; also called His-tagged AtOAS-TL A; source: E. coli BL21 (DE3), purified (Ni-NTA); not shown: His, C-terminal, kept

AtOAS-TL A^S102N-His = target: T4, AtOAS-TL A^S102N-His (Arabidopsis thaliana, UniProt P47998 1-322, S102N, labeled with RED-tris-NTA 2nd Generation Dye); assay: as above; details: both partners purified
T4 construct: Arabidopsis thaliana cytosolic O-acetylserine(thiol)lyase A, site-directed mutant; ORF without the stop codon; Cloned into the NdeI/XhoI sites of pET-29a; also called His-tagged AtOAS-TL A^S102N; source: E. coli BL21 (DE3), purified (Ni-NTA); not shown: His, C-terminal, kept
T4 sequence (P47998 whole entry S102N): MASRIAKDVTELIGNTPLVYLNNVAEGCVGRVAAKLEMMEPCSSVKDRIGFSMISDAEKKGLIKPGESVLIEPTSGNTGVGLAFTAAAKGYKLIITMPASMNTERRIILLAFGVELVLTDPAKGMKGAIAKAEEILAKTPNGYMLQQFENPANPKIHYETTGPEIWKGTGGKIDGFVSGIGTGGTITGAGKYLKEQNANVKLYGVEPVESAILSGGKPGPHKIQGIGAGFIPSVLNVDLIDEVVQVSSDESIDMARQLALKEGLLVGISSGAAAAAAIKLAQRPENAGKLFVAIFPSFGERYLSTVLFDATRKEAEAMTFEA

T3 sequence (P47998 whole entry): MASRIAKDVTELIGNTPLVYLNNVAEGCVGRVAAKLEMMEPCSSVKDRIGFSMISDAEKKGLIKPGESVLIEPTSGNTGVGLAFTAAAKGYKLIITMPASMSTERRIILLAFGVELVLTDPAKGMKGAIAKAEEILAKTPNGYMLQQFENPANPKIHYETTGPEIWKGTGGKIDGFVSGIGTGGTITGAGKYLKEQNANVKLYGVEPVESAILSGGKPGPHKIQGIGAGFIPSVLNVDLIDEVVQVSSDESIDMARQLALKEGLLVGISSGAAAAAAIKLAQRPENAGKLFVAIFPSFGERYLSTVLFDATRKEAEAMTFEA
T1 sequence (P47998 whole entry): as above
T2 sequence (Q9XEA6 whole entry): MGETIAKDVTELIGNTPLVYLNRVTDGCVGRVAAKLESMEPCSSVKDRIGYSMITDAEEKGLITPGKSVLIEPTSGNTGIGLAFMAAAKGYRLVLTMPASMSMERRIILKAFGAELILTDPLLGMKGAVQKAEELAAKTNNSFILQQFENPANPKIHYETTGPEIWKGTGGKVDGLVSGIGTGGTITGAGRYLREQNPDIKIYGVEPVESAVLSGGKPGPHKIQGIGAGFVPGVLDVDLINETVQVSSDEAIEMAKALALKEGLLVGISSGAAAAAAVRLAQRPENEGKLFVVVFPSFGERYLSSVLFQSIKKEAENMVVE

CC(=O)OC[C@H](N)C(=O)O [OAS]
Kd (AtOAS-TL A): 13.1 ± 4.83 nM | Kd (OsASTOL1): 1.47 ± 2.42 nM

mature OsASTOL1 protein (untagged) (from UniProt Q9XEA6 88-321) (enzyme)
stoichiometry N [1]: 2

mature OsASTOL1^S189N protein (untagged) (from UniProt Q9XEA6 88-321) (enzyme)
stoichiometry N [2]: 2

B1: AtSAT5C10 peptide (peptide)
peptide: FISEWSDYII
notes: Ten C-terminal residues of Arabidopsis thaliana serine acetyltransferase 5 (AtSAT5), AT5G56760; also called C-terminal fragment of SAT5; AtSAT5C10 fragment; source: synthetic peptide (GenScript Biotech, Nanjing)
binding result (AtOAS-TL A-His): binds | binding result (AtOAS-TL A^S102N-His): binds
